Experimental data from article PMC3439491.

Molecular target: MA-MADS5 full length (A) (Musa acuminata (AAA group, Cavendish subgroup, cv. Giant governor)) (UniProt E9NW24)
Assay: EMSA saturation
Conditions: EMSA with 2 ug recombinant protein or 15 ug nuclear extract, buffer by reference to earlier work; circularization pre-incubation: 60 mM KCl, 8 mM HEPES pH 7.9 …

Chain of MA-MADS5 full length (A) (Musa acuminata (AAA group, Cavendish subgroup, cv. Giant governor)) (E9NW24 entry or part of it): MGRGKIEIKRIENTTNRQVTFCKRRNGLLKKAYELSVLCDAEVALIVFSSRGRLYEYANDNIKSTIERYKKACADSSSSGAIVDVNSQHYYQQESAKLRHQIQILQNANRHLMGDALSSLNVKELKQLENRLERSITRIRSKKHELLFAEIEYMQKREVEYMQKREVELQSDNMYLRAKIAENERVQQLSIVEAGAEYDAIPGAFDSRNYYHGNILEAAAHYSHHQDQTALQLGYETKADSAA

Question: With c-fos SRE, pAS76 EcoRV fragment as the substance, how does the Kd read?
Answer: The Kd was 10.6 nM.
